The results in this text go back to paper PMC3170999 (Molecular cancer therapeutics, 2011).

Assay [1] deals with Biotinylated human IGF1 (human, UniProt P05019, biotin). The experiment in a line: flow cytometry on cells.
Assay [2] addresses Biotinylated human IGF2 (Homo sapiens, UniProt P01344, biotin). Nature of the assay: flow cytometry on cells. (In general: A flow cytometer gives signals particle by particle.)
For assay [3], the target named is T1, Human IGF2 (Homo sapiens, UniProt P01344). The experiment in a line: SPR. A general note: SPR reads the build-up and loss of mass on a sensor chip optically.
Assay [4] has as its target T2, Recombinant human IGF1 (Homo sapiens, UniProt P05019). Nature of the assay: SPR.
Assay [5] deals with T1, Human IGF2. The experiment in a line: SPR. The source holds these as a separate data set.
The target of assay [6] is T2, Recombinant human IGF1. Nature of the assay: SPR. The source holds these as a separate data set.

Changes are numbered by the printed parent chain.

B1: scFv m708.2, yeast-displayed (scFv, V domains shown)
VH: QVQLQQPGAEVKKPGSSVKVSCKASGGTFSSYAISWVRQAPGQGLEWMGGIIPILGIANYAQKFQGRVTITADESTSTAYMELSSLRSEDTAVYYCARGPRGYSYNFDYWGQGTLVTVSS
VL: DIQMTQSPSSLSASVGDRVTIACRASQTISRYLNWYQQKPGKAPKLLIYAASSLQSGVSSRFSGSGSGTEFTLTISSLQPEDFATYFCQQTYSPPITFGQGTRLEIK
In the case of B1, the results for the Kd in assay [1] and in assay [2] were 3.9 nM and 1.1 nM, respectively.

B2: scFv m708.5, yeast-displayed (scFv, V domains shown)
VH: B1 VH with P7L, K13M, I54T, A58V, N59K, E74K, R87G, R98G, Y109N
VL: B1 VL with A22V, L33V, T72A
Take B2: the Kd was 0.1 nM in assay [1] and 0.041 nM in assay [2].

B3: IgG1 m708.5 (antibody, V domains shown)
VH: B1 VH with P7L, K13M, I54T, A58V, N59K, E74K, R87G, R98G, Y109N
VL: B1 VL with A22V, L33V, T72A
Consider B3, for which the “fold change of the effective KD against the KD of scFv m708.5” value in assay [3] is 60 fold; in assay [4], 1000 fold.

B4: scFv m708.5, purified soluble (scFv, V domains shown)
VH: B1 VH with P7L, K13M, I54T, A58V, N59K, E74K, R87G, R98G, Y109N
VL: B1 VL with A22V, L33V, T72A
In assay [5], B4 showed a dissociation constant Kd of 0.061 nM and a koff of 2.5e-06 s⁻¹. In assay [6], the Kd came out at 0.2 nM and the koff was determined as 0.00028 s⁻¹.

B5: scFv m708.2, purified soluble (scFv, V domains shown)
VH: B1 VH
VL: B1 VL
In assay [5], B5 came in with a Kd of 1.8 nM and a dissociation rate constant (koff) of 0.0004 s⁻¹. In assay [6], the dissociation constant (Kd) is 2.2 nM and the off-rate (koff) came out at 0.0024 s⁻¹.

By Kd is commonly meant the free concentration of one partner at which half of the binding sites on the other are occupied at equilibrium, for simple one-to-one binding. As a reminder, the koff is the rate constant with which the complex falls apart.
